Kd, koff and kon data for 2 molecules are collected here from patent US20140120555A1 (PIERRE FABRE MEDICAMENT, published 2014).

A word on the Kd: it is the concentration at which binding is half-saturated. For orientation: koff means the first-order rate constant of dissociation. The kon is the rate constant with which the complex forms.

Test [1] deals with T1, Recombinant mouse FcγRIII [CD16], Ala31-Thr215 with C-terminal 10-His tag (mouse, UniProt P08508 31-215).
T1 construct: Soluble form bought from R&D Systems; also called m-FcγRIII
T1 sequence: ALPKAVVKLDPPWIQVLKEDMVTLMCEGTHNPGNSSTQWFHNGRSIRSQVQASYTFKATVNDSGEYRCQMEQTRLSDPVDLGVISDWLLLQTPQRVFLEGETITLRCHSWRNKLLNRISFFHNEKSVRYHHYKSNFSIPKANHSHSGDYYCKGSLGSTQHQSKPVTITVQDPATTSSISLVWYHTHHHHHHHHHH
Put plainly: SPR (Biacore X): m-FcγRIII injected over c515H7 Mab immobilized on a CM4 sensorchip; heterogeneous ligand model, minor component (1%). Here is the method: (§1) 2017 RU of c515H7 Mab were immobilized using the amine coupling kit chemistry on the second flowcell (FC2) of a CM4 sensorchip. The first flowcell (FC1) activated by NHS and EDC mixture and des-activated by ethanolamine served as the reference surface to check and subtract the non specific interaction between the analyte (Fc gamma receptors) and the sensorchip matrix.
(§2) The kinetic experiments were carried out at 25° Celsius at a flow rate of 30 μl/min. The HBS-EP buffer was used either as the running buffer or for the preparation of analyte solutions. The analyte solutions were injected during 90 seconds (association phase) with a 90 seconds delay (dissociation phase). An injection of running buffer as analyte was used as a double reference. All the sensorgrams were corrected by this double reference sensorgram.
(§3) After each injection of the analyte, the sensorchip was regenerated by injection of 20 mM NaOH, 75 mM NaCl solution.
A general note: Surface plasmon resonance follows binding to a sensor surface in real time, without labels.

For test [2], the target named is T2, Recombinant human FcγRIIIA variant V [CD16a], Gln17-Gln208 with C-terminal 6-His tag (human, UniProt P08637 17-208).
T2 construct: range 17-208; 'variant V' is given without a position, so no substitution is written; also called h-FcγRIIIA
T2 sequence (P08637 other isoform, or with tags, fused parts or gaps mutant limits assumed, form in doubt): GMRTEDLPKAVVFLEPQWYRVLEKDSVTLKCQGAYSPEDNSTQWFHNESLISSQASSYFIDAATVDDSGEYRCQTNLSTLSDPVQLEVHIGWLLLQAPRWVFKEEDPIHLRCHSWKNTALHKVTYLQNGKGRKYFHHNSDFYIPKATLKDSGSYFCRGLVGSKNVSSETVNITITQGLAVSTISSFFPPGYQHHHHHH
Put plainly: SPR (Biacore X): h-FcγRIIIA injected over c515H7 Mab immobilized on a CM4 sensorchip; heterogeneous ligand model, minor component (19%). Here is the method:
as §1, §2, §3

Test [3] concerns the target T3, Recombinant mouse FcγRI [CD64], Gln25-Pro297 with C-terminal 6-His tag (mouse, UniProt P26151 25-297).
T3 construct: range 25-297; Soluble form bought from R&D Systems; also called m-FcγRI
T3 sequence: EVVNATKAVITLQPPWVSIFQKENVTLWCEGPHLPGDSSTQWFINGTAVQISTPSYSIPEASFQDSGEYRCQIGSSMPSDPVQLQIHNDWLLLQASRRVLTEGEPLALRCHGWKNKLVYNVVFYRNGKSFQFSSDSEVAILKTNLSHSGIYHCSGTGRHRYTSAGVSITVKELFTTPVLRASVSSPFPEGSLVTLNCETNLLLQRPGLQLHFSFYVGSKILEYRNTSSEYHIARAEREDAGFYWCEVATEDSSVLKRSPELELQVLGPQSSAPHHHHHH
Put plainly: SPR (Biacore X): m-FcγRI injected over c515H7 Mab immobilized on a CM4 sensorchip; heterogeneous ligand model, major component (81%). Here is the method:
as §1, §2, §3

The target in test [4] is T1, Recombinant mouse FcγRIII [CD16], …. Put plainly: SPR (Biacore X): m-FcγRIII injected over c515H7 Mab immobilized on a CM4 sensorchip; Langmuir model. Here is the method:
as §1, §2, §3

For test [5], the target named is T3, Recombinant mouse FcγRI [CD64], …. The experiment in a line: SPR (Biacore X): m-FcγRI injected over c515H7 Mab immobilized on a CM4 sensorchip; heterogeneous ligand model, minor component (19%). As for the experimental part: as §1, §2, §3
For test [6], the target named is T4, Recombinant human FcγRI [CD64], Gln16-Pro288 with C-terminal 6-His tag (human, UniProt P12314 16-288).
T4 construct: range 16-288; Soluble form bought from R&D Systems; also called h-FcγRI
T4 sequence (P12314 other isoform, or with tags, fused parts or gaps limits assumed): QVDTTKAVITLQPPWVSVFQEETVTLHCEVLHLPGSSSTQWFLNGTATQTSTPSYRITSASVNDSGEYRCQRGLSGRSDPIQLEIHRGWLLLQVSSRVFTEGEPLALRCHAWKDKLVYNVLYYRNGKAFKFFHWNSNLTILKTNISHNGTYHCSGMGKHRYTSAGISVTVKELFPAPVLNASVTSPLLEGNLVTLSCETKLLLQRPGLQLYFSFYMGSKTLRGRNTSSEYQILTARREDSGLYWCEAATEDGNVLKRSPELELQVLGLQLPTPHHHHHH
The experiment in a line: SPR (Biacore X): h-FcγRI injected over c515H7 Mab immobilized on a CM4 sensorchip; Langmuir model. As for the experimental part:
as §1, §2, §3

Test [7] has as its target T4, Recombinant human FcγRI [CD64], …. The experiment in a line: SPR (Biacore X): h-FcγRI injected over hz515H7VH1D76NVL2 Mab immobilized on a CM4 sensorchip; heterogeneous ligand model, major component (99%). Here is the method: The experiments were carried out using a Biacore X device. The soluble forms of the four Fc […]gamma receptors used in this study were purchased from R&D Systems: […]

Test [8] addresses T1, Recombinant mouse FcγRIII [CD16], …. Put plainly: SPR (Biacore X): m-FcγRIII injected over hz515H7VH1D76NVL2 Mab immobilized on a CM4 sensorchip; heterogeneous ligand model, major component (66%).
Test [9] deals with T3, Recombinant mouse FcγRI [CD64], …. The experiment in a line: SPR (Biacore X): m-FcγRI injected over hz515H7VH1D76NVL2 Mab immobilized on a CM4 sensorchip; heterogeneous ligand model, major component (82%). Here is the method: 1964 RU of hz515H7VH1D76NVL2 Mab were immobilized using the amine coupling kit chemistry on the second flowcell (FC2) of a CM4 sensorchip. The first flowcell (FC1) activated by NHS and EDC mixture and des-activated by ethanolamine served as the reference surface to check and subtract the non specific interaction between the analyte (Fc gamma receptors) and the sensorchip matrix.
as §2
After each injection of the analyte, the sensorchip was regenerated by injection of either 20 mM NaOH solution after h-FcγRI and m-FcγRIII or 10 mM NaOH after h-FcγRIIIA and m-FcγRI.

B1: chimeric antibody c515H7 (antibody, human IgG1, kappa)
heavy: not shown
light: DIVMSQSPSSLAVSAGEKVTMSCKSSQSLFNSRTRKNYLAWYQQKPGQSPKLLIYWASARDSGVPARFTGSGSETYFTLTISRVQAEDLAVYYCMQSFNLRTFGGGTKLEIKRTVAAPSVFIFPPSDEQLKSGTASVVCLLNNFYPREAKVQWKVDNALQSGNSQESVTEQDSKDSTYSLSSTLTLSKADYEKHKVYACEVTHQGLSSPVTKSFNRGEC
notes: Human IgG1/kappa constant domains; also called c515H7 Mab; chimeric 515H7
Consider B1, for which the equilibrium dissociation constant (Kd) was 67 nM in test [1]; 34.7 nM in test [2]; 416 nM in [3]; 20.9 nM in [4]; 34.6 nM in [5]; 1.22 nM in test [6]. For the same molecule, the off-rate constant (koff) in test [1] came to 0.0024 s⁻¹; in test [2], 0.0124 s⁻¹; in test [3], 0.138 s⁻¹; in test [4], 0.00442 s⁻¹; in [5], 0.0387 s⁻¹; in test [6], 0.000599 s⁻¹. Besides, the on-rate constant (kon) in test [1] turned out to be 40000 M⁻¹ s⁻¹; in [2], 357000 M⁻¹ s⁻¹; in [3], 332000 M⁻¹ s⁻¹; in test [4], 211000 M⁻¹ s⁻¹; in test [5], 1.12e+06 M⁻¹ s⁻¹; in [6], 493000 M⁻¹ s⁻¹.

B2: humanized antibody Hz515H7 VH1 D76N VL2 (antibody, human IgG1, kappa)
heavy: not shown
light: DIVMTQSPSSLAVSLGERATMSCKSSQSLFNSRTRKNYLAWYQQKPGQSPKLLIYWASARDSGVPARFTGSGSETYFTLTISRVQAEDLAVYYCMQSFNLRTFGQGTKVEIKRTVAAPSVFIFPPSDEQLKSGTASVVCLLNNFYPREAKVQWKVDNALQSGNSQESVTEQDSKDSTYSLSSTLTLSKADYEKHKVYACEVTHQGLSSPVTKSFNRGEC
notes: IgG1/kappa; also called hz515H7VL2; hz515H7-1
Regarding B2, in test [7], the Kd was determined as 0.69 nM, the koff amounted to 0.0004 s⁻¹ and the association rate constant (kon) stood at 579000 M⁻¹ s⁻¹. Moreover, in [8], the Kd was determined as 0.2 nM, the dissociation rate constant (koff) turned out to be 3.7e-05 s⁻¹ and the kon worked out at 178000 M⁻¹ s⁻¹. Also, in test [9], the Kd was 76.8 nM, the off-rate (koff) stood at 0.106 s⁻¹ and the kon turned out to be 1.38e+06 M⁻¹ s⁻¹.
